This note sets out measurements from patent US7125847 (RESEARCH FOUNDATION OF STATE UNIVERSITY OF NEW YORK AT …, dated 2006).

For the assay, the target named is stretch-activated channels (cationic SACs) of ventricular myocytes from rabbits with aortic … (rabbit). The assay is described as follows: cell-based or functional assay.

Where no end group is shown, it is not given here.

B1: GsMTx-4 purified from Grammostola spatulata venom (peptide)
peptide: GCLEFWWKCNPNDDKCCRPKLKCSKLFKLCNFSSG-NH2
modifications: disulfide (positions not given here); not fully specified (bridges); also: 3 disulfides (ICK motif), pairing not given here
With B1, the “myocyte cell volume reduction relative to that produced by 1.5 T saline” value is roughly 40%.
